Patent publication US20200283521A1 (GRANULAR THERAPEUTICS, published 2020)

Columns and labels:
KRT19 = molecular target: T1, KRT19 (human, UniProt P08727); test: cell array, transfected fixed HEK293 cells
T1 construct: expressed in transfected HEK293 cells
T1 sequence (looked up): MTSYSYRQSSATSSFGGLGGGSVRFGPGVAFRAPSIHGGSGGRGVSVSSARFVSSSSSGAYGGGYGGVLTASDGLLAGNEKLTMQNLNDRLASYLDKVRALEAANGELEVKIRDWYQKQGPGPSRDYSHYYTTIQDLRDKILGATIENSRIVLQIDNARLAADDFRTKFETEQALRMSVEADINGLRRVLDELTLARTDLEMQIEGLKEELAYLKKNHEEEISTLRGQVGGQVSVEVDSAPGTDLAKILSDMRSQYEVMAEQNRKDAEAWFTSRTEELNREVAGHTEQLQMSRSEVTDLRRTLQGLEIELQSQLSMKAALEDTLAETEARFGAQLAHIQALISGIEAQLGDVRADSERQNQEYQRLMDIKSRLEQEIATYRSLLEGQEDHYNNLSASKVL
Protocol: (§1) Transfection of all plasmids was confirmed by screening for the co-encoded marker ZS green (FIG. 13A).
(§2) Primary hits (duplicate spots) were identified by analysing fluorescence (AF647 and ZsGreenl) on ImageQuant. Vectors encoding all hits were sequenced to confirm their correct identities. […] Slides were analysed as above.

COL23A1 = molecular target: T2, COL23A1 (human, UniProt Q86Y22); test: cell array, transfected fixed HEK293 cells
T2 construct: expressed in transfected HEK293 cells
Protocol: as §1, §2

EDN1 = molecular target: T3, EDN1 (human, UniProt P05305); test: cell array, transfected fixed HEK293 cells
T3 construct: expressed in transfected HEK293 cells
T3 sequence (looked up): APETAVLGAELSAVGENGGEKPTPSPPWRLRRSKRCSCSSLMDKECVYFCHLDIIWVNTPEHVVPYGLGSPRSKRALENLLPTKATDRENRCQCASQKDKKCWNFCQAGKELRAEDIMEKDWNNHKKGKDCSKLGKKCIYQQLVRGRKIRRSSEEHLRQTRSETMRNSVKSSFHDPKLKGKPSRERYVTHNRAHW
Protocol: as §1, §2

hOX40-Fc = molecular target: T4, hOX40-Fc; test: direct ELISA on coated protein, IgG1
T4 construct: member of the panel m9
T4 chain: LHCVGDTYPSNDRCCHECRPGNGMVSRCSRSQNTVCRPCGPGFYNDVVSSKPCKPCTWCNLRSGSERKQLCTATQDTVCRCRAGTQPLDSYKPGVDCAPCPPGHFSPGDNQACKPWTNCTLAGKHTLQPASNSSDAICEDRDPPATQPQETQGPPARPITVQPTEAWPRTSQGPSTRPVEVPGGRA

hCD4 = molecular target: T5, hCD4 (human, UniProt P01730); test: direct ELISA on coated protein, IgG1
T5 construct: purified recombinant protein; member of the panel m9

hLTBR-Fc = molecular target: T6, hLTBR-Fc (human, UniProt P36941); test: direct ELISA on coated protein, IgG1
T6 construct: Fc fusion; member of the panel m9

hCMET-Fc = molecular target: T7, hCMET-Fc (The natural ectodomain is cleaved by furin after residue 307 into disulfide-linked alpha and beta chains. It is given here as one continuous stretch.); test: direct ELISA on coated protein, IgG1
T7 construct: member of the panel m9
T7 chain: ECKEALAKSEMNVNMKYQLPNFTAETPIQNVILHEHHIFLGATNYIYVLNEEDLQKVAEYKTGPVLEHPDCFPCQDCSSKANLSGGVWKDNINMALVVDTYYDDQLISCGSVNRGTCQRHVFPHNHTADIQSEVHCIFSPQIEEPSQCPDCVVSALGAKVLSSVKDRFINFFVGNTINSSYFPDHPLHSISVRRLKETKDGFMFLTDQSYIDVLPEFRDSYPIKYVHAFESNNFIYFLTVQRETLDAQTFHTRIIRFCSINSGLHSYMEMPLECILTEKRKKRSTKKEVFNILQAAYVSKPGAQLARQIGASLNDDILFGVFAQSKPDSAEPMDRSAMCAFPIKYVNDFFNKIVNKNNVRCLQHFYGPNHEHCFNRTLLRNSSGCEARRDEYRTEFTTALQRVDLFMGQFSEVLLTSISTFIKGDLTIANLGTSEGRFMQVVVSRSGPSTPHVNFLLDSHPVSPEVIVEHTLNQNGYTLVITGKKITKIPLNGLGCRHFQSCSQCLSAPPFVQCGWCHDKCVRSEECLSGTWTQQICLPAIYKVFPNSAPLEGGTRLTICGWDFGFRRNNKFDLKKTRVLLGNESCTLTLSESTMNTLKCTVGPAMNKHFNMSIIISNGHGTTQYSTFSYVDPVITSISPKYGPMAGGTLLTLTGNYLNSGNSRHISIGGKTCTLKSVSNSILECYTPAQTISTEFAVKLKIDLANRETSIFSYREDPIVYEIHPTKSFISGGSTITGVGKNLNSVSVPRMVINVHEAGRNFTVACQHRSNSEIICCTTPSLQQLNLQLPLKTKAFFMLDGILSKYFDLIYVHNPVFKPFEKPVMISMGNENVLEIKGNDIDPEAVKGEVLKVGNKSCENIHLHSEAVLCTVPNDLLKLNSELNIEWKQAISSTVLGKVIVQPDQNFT

hEpCAM-Fc = molecular target: T8, hEpCAM-Fc (human, UniProt P16422); test: direct ELISA on coated protein, IgG1
T8 construct: Fc fusion; member of the panel m9
T8 sequence (looked up): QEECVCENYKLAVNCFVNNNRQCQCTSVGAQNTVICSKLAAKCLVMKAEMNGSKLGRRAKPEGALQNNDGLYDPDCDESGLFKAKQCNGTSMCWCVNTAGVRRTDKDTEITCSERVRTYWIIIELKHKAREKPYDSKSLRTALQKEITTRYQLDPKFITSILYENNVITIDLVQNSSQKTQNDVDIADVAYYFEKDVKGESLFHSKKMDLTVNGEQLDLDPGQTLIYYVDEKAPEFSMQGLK

hDR6-Fc = molecular target: T9, hDR6-Fc (human, UniProt O75509); test: direct ELISA on coated protein, IgG1
T9 construct: Fc fusion; member of the panel m9
T9 sequence (looked up): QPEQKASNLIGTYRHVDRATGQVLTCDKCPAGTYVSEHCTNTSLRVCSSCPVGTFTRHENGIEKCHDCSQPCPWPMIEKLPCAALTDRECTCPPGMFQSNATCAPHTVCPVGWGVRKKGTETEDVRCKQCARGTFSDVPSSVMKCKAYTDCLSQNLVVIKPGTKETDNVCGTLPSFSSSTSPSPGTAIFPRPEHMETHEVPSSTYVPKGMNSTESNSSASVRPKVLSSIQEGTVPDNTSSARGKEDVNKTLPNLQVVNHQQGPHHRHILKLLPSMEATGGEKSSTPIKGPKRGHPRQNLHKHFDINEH

T6 sequence (P36941 28-227 limits assumed): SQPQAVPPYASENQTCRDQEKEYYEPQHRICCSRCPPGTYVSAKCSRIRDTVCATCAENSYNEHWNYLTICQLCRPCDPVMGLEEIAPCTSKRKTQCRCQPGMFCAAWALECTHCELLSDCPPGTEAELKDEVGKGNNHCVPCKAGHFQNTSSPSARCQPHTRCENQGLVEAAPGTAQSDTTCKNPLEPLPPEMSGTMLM
T2 sequence (Q86Y22 whole entry): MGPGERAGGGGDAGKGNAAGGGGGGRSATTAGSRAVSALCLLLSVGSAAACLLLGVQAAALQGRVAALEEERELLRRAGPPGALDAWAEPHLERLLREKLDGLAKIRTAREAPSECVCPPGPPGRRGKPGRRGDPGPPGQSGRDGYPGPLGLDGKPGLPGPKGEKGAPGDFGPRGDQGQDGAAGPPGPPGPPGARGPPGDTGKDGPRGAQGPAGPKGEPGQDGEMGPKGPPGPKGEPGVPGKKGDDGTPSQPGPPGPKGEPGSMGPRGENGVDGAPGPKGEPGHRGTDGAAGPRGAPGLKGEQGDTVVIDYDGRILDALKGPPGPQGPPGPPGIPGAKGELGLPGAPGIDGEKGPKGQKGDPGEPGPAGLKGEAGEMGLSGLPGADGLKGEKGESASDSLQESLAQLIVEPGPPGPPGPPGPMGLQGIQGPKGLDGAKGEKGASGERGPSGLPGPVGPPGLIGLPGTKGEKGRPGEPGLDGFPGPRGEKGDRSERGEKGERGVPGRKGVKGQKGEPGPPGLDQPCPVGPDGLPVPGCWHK

B1: humanized h37M, human IgG1 (antibody, V domains shown)
VH: QVQLVQSGAEVKKPGASVKLSCKASGYTFTDYYINWVRQAPGKGLEWIARIYPGSGNTYYNEKFKGRATLTADKSTSTAYMQLSSLRSEDTAVYFCARGVYYFDYWGQGTTVTVSS
VL: DIVMTQSPSSLSASVGDRVTITCKASQNVRTNVAWYQQKPGKAPKALIYSASYRYSGVPDRFTGSGSGTDFTLTISSLQPEDFADYFCQQYNSYPRTFGGGTKVEIK
notes: human IgG1; terbium-labelled as the tracer of the HTRF assays; also called C-KIT-h37M; h37M-IgG1
KRT19
  binding result: no binding (tested: 2 µg/ml)
COL23A1
  binding result: no binding (tested: 2 µg/ml)
EDN1
  binding result: no binding (tested: 2 µg/ml)

B2: MH1, human IgG1 (antibody, V domains shown)
VH: QVQLVQSGAEVKKPGASVKVSCKASGYTFTDYYMNWVRQAPGQGLEWMGRIYPGSGNTYYAQKFQGRVTMTRDTSTSTVYMELSSLRSEDTAVYYCARGVYYYDYWGQGTLVTVSS
VL: DIQMTQSPSSLSASVGDRVTITCRASQGIRTNLAWFQQKPGKAPKSLIYAASSLQSGVPSRFSGSGSGTDFTLTISSLQPEDFATYYCQQYNSYPRTFGGGTKVEIK
notes: IgG1; also called IgG1-MH1
hOX40-Fc
  binding result: no binding (tested: 1 µg/ml)
hCD4
  binding result: no binding (tested: 1 µg/ml)
hLTBR-Fc
  binding result: no binding (tested: 1 µg/ml)
hCMET-Fc
  binding result: no binding (tested: 1 µg/ml)
hEpCAM-Fc
  binding result: no binding (tested: 1 µg/ml)
hDR6-Fc
  binding result: no binding (tested: 1 µg/ml)
